Five molecules from patent US5595736 can be followed below.

B1: mt-PA9 (enzyme)
chain: SYQDTRATCYEDQGISYRGTWSTAESGAECTNWNSSALAQKPYSGRRPDAIRLGLGNHNYCRNPDGDAKPWCHVLKNRRLTWEYCDVPSCSTCGLRQYSQPQFRIKGGLFADIASHPWQAAIFAKHRRSPGERFLCGGILISSCWILSAAHCFQERFPPHHLTVILGRTYRVVPGEEEQKFEVEKYIVHKEFDDDTYDNDIALLQLKSDSSRCAQESSVVRTVCLPPADLQLPDWTECELSGYGKHEALSPFYSERLKEAHVRLYPSSRCTSQHLLNRTVTDNMLCAGDTRSGGPQANLHDACQGDSGGPLVCLNDGRMTLVGIISWGLGCGQKDVPGVYTKVTNYLDWIRDNMRP
modifications: diglycosylated: obligatory glycosylation site located in the first exon of Kringle 1, and the site in the Serine Protease domain
For the molecule B1, the ratio of the rates of Lys- to Glu-plasminogen activation in the presence of fibrin stimulator (Lys/Glu) (Lys/Glu (ratio of rates), single chain) with Lysine (Lys)-Plasminogen worked out at 2. This molecule gave a plasminogenolytic activity (PAU/mg) (PAU/mg (single chain)) with plasminogen of 50.

B2: mt-PA6-D (enzyme)
chain: SYQGNSDCYFGQGSAYRGTHSLTESGASCLPWNGSMILIGKVYTAQNPSAQALGLGKHNYCRNPDGDAKPWCHVLKNRRLTWEYCDVPSCSTCGLRQYSQPQFRIKGGLFADIASHPWQAAIFAKHRRSPGERFLCGGILISSCWILSAAHCFQERFPPHHLTVILGRTYRVVPGEEEQKFEVEKYIVHKEFDDDTYDNDIALLQLKSDSSRCAQESSVVRTVCLPPADLQLPDWTECELSGYGKHEALSPFYSERLKEAHVRLYPSSRCTSQHLLNRTVTDNMLCAGDTRSGGPQANLHDACQGDSGGPLVCLNDGRMTLVGIISWGLGCGQKDVPGVYTKVTNYLDWIRDNMRP
modifications: diglycosylated: alternate glycosylation consensus sequence at the amino acids surrounding position 33 (equivalent to amino acid 205 of t-PA) in Kringle 2, and the glycosylation consensus sequence within the Serine Protease domain
On to B2, for which the ratio of the rates of Lys- to Glu-plasminogen activation in the presence of fibrin stimulator (Lys/Glu) (Lys/Glu (ratio of rates), single chain) with Lysine (Lys)-Plasminogen was found to be 3.3. The plasminogenolytic activity (PAU/mg) (PAU/mg (single chain)) with plasminogen is 189.

B3: mt-PA6-E (enzyme)
chain: SYQGNSDCYFGQGSAYRGTHSLTESGASCLPWNSMILIGKVYTAQNGSAQALGLGKHNYCRNPDGDAKPWCHVLKNRRLTWEYCDVPSCSTCGLRQYSQPQFRIKGGLFADIASHPWQAAIFAKHRRSPGERFLCGGILISSCWILSAAHCFQERFPPHHLTVILGRTYRVVPGEEEQKFEVEKYIVHKEFDDDTYDNDIALLQLKSDSSRCAQESSVVRTVCLPPADLQLPDWTECELSGYGKHEALSPFYSERLKEAHVRLYPSSRCTSQHLLNRTVTDNMLCAGDTRSGGPQANLHDACQGDSGGPLVCLNDGRMTLVGIISWGLGCGQKDVPGVYTKVTNYLDWIRDNMRP
modifications: diglycosylated: alternate glycosylation consensus sequence at the amino acids surrounding position 48 (equivalent to amino acid 219 of t-PA) in Kringle 2 (claim 2: monoglycosylated at amino acid residue number 47), and the glycosylation consensus sequence within the Serine Protease domain
Consider B3, for which the ratio of the rates of Lys- to Glu-plasminogen activation in the presence of fibrin stimulator (Lys/Glu) (Lys/Glu (ratio of rates), single chain) in the assay with Lysine (Lys)-Plasminogen was 2. In the assay with plasminogen, this molecule registered a plasminogenolytic activity (PAU/mg) (PAU/mg (single chain)) of 59.

B4: Variant mt-PA6 (mt-PA6-V) (enzyme)
chain: SYQGNSDCYFGNGSAYRGTHSLTESGASCLPWNSMILIGKVYTAQNPSAQALGLGKHNYCRNPDGDAKPWCHVLKNRRLTWEYCDVPSCSTCGLRQYSQPQFRIKGGLFADIASHPWQAAIFAKHRRSPGERFLCGGILISSCWILSAAHCFQERFPPHHLTVILGRTYRVVPGEEEQKFEVEKYIVHKEFDDDTYDNDIALLQLKSDSSRCAQESSVVRTVCLPPADLQLPDWTECELSGYGKHEALSPFYSERLKEAHVRLYPSSRCTSQHLLNRTVTDNMLCAGDTRSGGPQANLHDACQGDSGGPLVCLNDGRMTLVGIISWGLGCGQKDVPGVYTKVTNYLDWIRDNMRP
modifications: glycosylated at amino acids 276 and 12
In the case of B4, in the assay with Lysine (Lys)-Plasminogen, the ratio of the rates of Lys- to Glu-plasminogen activation in the presence of fibrin stimulator (Lys/Glu) (Lys/Glu (ratio of rates), single chain) turned out to be 1.4. Besides, the plasminogenolytic activity (PAU/mg) (PAU/mg (single chain)) with plasminogen came to 56.

B5: Primary mt-PA6 (mt-PA6-P) (enzyme)
chain: SYQGNSDCYFGNGSAYRGTHSLTESGASCLPWNSMILIGKVYTAQNPSAQALGLGKHNYCRNPDGDAKPWCHVLKNRRLTWEYCDVPSCSTCGLRQYSQPQFRIKGGLFADIASHPWQAAIFAKHRRSPGERFLCGGILISSCWILSAAHCFQERFPPHHLTVILGRTYRVVPGEEEQKFEVEKYIVHKEFDDDTYDNDIALLQLKSDSSRCAQESSVVRTVCLPPADLQLPDWTECELSGYGKHEALSPFYSERLKEAHVRLYPSSRCTSQHLLNRTVTDNMLCAGDTRSGGPQANLHDACQGDSGGPLVCLNDGRMTLVGIISWGLGCGQKDVPGVYTKVTNYLDWIRDNMRP
modifications: glycosylated at amino acid 276 but not at amino acid 12
On to B5, for which, in the assay with Lysine (Lys)-Plasminogen, the ratio of the rates of Lys- to Glu-plasminogen activation in the presence of fibrin stimulator (Lys/Glu) (Lys/Glu (ratio of rates), single chain) was 1. The molecule also yielded a plasminogenolytic activity (PAU/mg) (PAU/mg (single chain)) with plasminogen of 87.
